Measured values published in article doi:10.1101/2022.11.23.517751.

Target: VZV gB[H527P] on extracellular vesicles (EVs) from BHK-21 cells (varicella-zoster virus (VZV)) (UniProt Q4JR05)
Assay: cryo-EM structure

“VZV gB[H527P] on extracellular vesicles (EVs) from BHK-21 cells (from UniProt Q4JR05 72-931) (natural protein)” was tested, and the stoichiometry N was 3.
